In paper PMC3325965, “Structural Basis of the Chromodomain of Cbx3 Bound to Methylated Peptides from Histone H1 and G9a” (PLoS ONE, 2012) one finds Kd data, which are given here for six substances.

What is called Kd is the free concentration of one partner at which half of the binding sites on the other are occupied at equilibrium, for simple one-to-one binding.

Experiment [1] concerns the target Histone H3K9me3 peptide (Homo sapiens) (UniProt P68431). Particulars: cited from earlier work.
The target in experiment [2] is human Cbx3 chromodomain (residues 29–86) (human) (UniProt Q13185). The experiment can be described thus: ITC; peptide solution (1–2 mM) injected into the cell with Cbx3 chromodomain (40–100 mM [sic]) in 20 mM Tris–HCl, pH 7.5, 150 mM NaCl; one-site binding model. On the technique in general: In ITC the heat of successive injections is recorded.
Chain of human Cbx3 chromodomain (residues 29–86) (human) (Q13185 29-86): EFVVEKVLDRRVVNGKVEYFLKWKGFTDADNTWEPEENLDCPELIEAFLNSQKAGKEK

Chain of Cbx3 chromodomain (Q13185 30-88): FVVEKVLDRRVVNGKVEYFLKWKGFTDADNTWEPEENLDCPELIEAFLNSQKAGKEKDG

Cbx3 chromodomain (from UniProt Q13185): the Kd in experiment [1] is 15 µM.

G9a(179–190) peptide, K185 dimethylated had a Kd in experiment [2] of 9 µM.

“G9a(179–190) peptide, K185 monomethylated” returned an equilibrium dissociation constant (Kd) in experiment [2] of 28 µM.

The substance “G9a(179–190) peptide, K185 trimethylated” showed a Kd in experiment [2] of 14 µM.

In turn, “histone H1.4(18–29) peptide, K26 dimethylated” returned a Kd in experiment [2] of 52 µM.

As for “histone H1.4(18–29) peptide, K26 trimethylated”, the Kd in experiment [2] amounted to 21 µM.
